Test results published in publication PMC5816949, “Highly Sensitive Colorimetric Biosensor for Staphylococcal Enterotoxin B by a Label-Free Aptamer and Gold Nanoparticles”.
Like-named read-outs stand apart in the source and are kept apart here.

How the values were obtained:
[1] = molecular target: Staphylococcal enterotoxin B (SEB, r-SEB) (Staphylococcus aureus, UniProt P01552 28-266)
[2] = molecular target: Staphylococcal enterotoxin B (SEB, r-SEB) (Staphylococcus aureus, UniProt P01552 28-266); assay: AuNP colorimetric aggregation assay; 240 nM random DNA; details: protein: recombinant; label: none

B1: SEB2 aptamer (ssDNA)
DNA: TAGCTCACTCATTAGGCACGGGTAGGCCATAATATCTTATTAGCGTAATTCTGCGATTGGCATAGTTAAGCCAGCC
binding result [1]: binds

CGTAGTCTAGTGTCGATTAGTTTCCTTGAGACCTTGTGCT (ssDNA) [random ssDNA (RDNA)]
binding result [2]: no binding
